Assay results reported in the nanobody polyreactivity screen of Harvey et al. (2022).

experiment: yeast display, Sf9 membrane polyspecificity reagent, FACS + sequencing; frameworks hold sequencing errors
In short: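 After 36–48 hours of galactose induction, yeast (Saccharomyces cerevisiae BJ5465) displaying a synthetic nanobody library were stained at 4 °C for 1 hour with 10% biotinylated, detergent-solubilized Sf9 membrane reagent. Streptavidin microbeads enriched the stained cells before FACS sorting into low and high (top ~1%) gates on anti-HA and streptavidin fluorescence. Each clone's polyreactivity label reflects its gate of origin.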

| Sequence | polyreactivity (PSR sort gate) |
| --- | --- |
| QVQLVESGGGLVQAGGSLRLSCAASGFIFRYYAMGWYRQEPGKERELVAAITSRGSSTYYADSVKGRFTISRDNAKNTVYLQMNSLKPEDTAVYYCAARLRGDYVRYDYWGQGTQVTVSS | high polyreactivity |
| QVQLVESGGGLVQAGGSLRLSCAASGFIFRYYARGWYRQAPGKERELVAAITSTGRTYYADSVKGRFTISRDNAKNTVYLQMNSLKPEDTAVYYCAKAWLRWGEDYWGQGTQVTVSS | low polyreactivity |
| QVQLVESGGGLVQAGGSLRLSCAASGFIFSAYAMGWYRQAPGKERELVAAISYSGGTTYYADSVKGRFTISRDNAKNTVYLQMNSLKPEDTAVYYCAAGVGYWGQGTQVTVSS | high polyreactivity |
| QVQLVESGGGLVQAGGSLRLSCAASGFIFSIYVMGWYRQAPGKERELVATISSTGSTNYADSVKGRFTISRDNAKNTVYLQMNSLKPEDTAVYYCAAYRRWWGQGTQVTVSS | high polyreactivity |
| QVQLVESGGGLVQAGGSLRLSCAASGFIFSKYAMGWYRQAPGKERELVAAITRSGGRTYYADSVKGRFTISRDNAKNTVYLQMNSLKPEDSAVYYCAASWLYFGRDYWGQGTQVPVSS | high polyreactivity |
| QVQLVESGGGLVQAGGSLRLSCAASGFIFSLYAMGWYRQAPGKERELVAVITWSDGRTYYADSVKGRFTISRDNAKNTVYLQMNSLKQEDTAVYYCAAADWITEYDYWGQGTQVTVSS | low polyreactivity |
| QVQLVESGGGLVQAGGSLRLSCAASGFIFSNYAMGWYRQAPGKERELVAAISRSGGSTYYADSVKGRFTISRDNAKNTVYLQMNSLKPEDTAVYYCAARHAPILGDHGMKYWGQGTQVTVSS | high polyreactivity |
| QVQLVESGGGLVQAGGSLRLSCAASGFIFSNYAMGWYRQEPGKERELVAAISWSGTLTNYADSVKGRFTISRDNAKNTVYLQMNSLKPEDTAVYYCAAYGDYLYDYWGQGTQVTVSS | low polyreactivity |
| QVQLVESGGGLVQAGGSLRLSCAASGFIFSRNAMGWYRQAPGKEREFVAAISGRGGSTYYADSVKGRFTISRDNAKNTVYVQMNSLKPEDTAVYYCAVYSYGQTYSGYYLGQGTQVTVSS | high polyreactivity |
| QVQLVESGGGLVQAGGSLRLSCAASGFIFSRNVMGWYRQAPGKDRELVAAISRSGGSTYYADSVKGRFTISRDNAKNTVYLQMNSLKPEDTAVYYCAAVRRVYSQNDYWGQGTQVTVSS | high polyreactivity |
| QVQLVESGGGLVQAGGSLRLSCAASGFIFSRYAMGWSRQAPGKERELVAAISSRGGSTYYADSVKGRFTISRDNAKNTVYLQMNSLKPEDTAVFYWIAVGSAHYDYWGQGTQVTVSS | high polyreactivity |
| QVQLVESGGGLVQAGGSLRLSCAASGFIFSRYAMGWYRQAPGKERELVAAISIGGSTYYADSVKGRFTISRDNAKNTVYLQMNSLKPEDTAVYDCAVDYRHSSSWNAGPWEMYYWGQGTQVTVSS | low polyreactivity |
| QVQLVESGGGLVQAGGSLRLSCAASGFIFSSYAMGSYRQAPGKERELVAAISWSGGSTYYADSVKGRFTISRDNAKNTVYLQMKSLKPEDAAVYYCASVTRIFDYWGQGTQVTVSS | high polyreactivity |
| QVQLVESGGGLVQAGGSLRLSCAASGFIFSSYAMGWYRPAPGKERELVAAISKSGGRTYYADSVKGRFTISRDNAKNTVYLQMNSLKPEDTSVYYCAKDVSDPFYDPFEYWGQGTQVTVSS | low polyreactivity |
| QVQLVESGGGLVQAGGSLRLSCAASGFIFSSYAMGWYRQAPGKERELVAAINSSGGRTYYADSVKGRFTISRDNAKNTVYLQMNSLKPEDTAVYYCAAVVWSYYVGDDYWGQGTQVTVSS | high polyreactivity |
| QVQLVESGGGLVQAGGSLRLSCAASGFIFSSYAMGWYRQAPGKESELVAAITSGGSTNYADSVKGRFTISRDNAKNTVYLQMNSLKPEDTADYYCATLPGGSWFFHWWSTGGDDEYWGQGTQVTVSS | low polyreactivity |
| QVQLVESGGGLVQAGGSLRLSCAASGFIFSSYAMGWYRQATGKERELVATISWSGGSTYYADSVKGRFTISRDNAKNTVYLQMNSLKPEDTAVYYCAAGYQRYLQRPEFYYWGQGTQVTVSS | high polyreactivity |
| QVQLVESGGGLVQAGGSLRLSCAASGFIFSTYTMGWYRQAPGKERELVAAISWRGGRTYYADSVKGRFTISRDNAKNTVYLQMNSLKPEDTAVYYCADYGTIRSSTAVEPLYNHWGQGTQVTVSS | high polyreactivity |
| QVQLVESGGGLVQAGGSLRLSCAASGFIFSVYAMGGYRQAPGKDTELVAVISTSGGRTYYADSVKGRFTISRDNAKNTVYLQMNSLKPEDTAVYYCAADGFQYTLGNYYWGQGTQVTVSS | high polyreactivity |
| QVQLVESGGGLVQAGGSLRLSCAASGFIFSWYAMGWYRQAPGKERELVAAISHDGGSTYYADSVKGRFTISRDNAKNTVYLQMNSLKAEDTAVYYCAAPLRALSQRMGYWGQGTQVTVSS | high polyreactivity |
| QVQLVESGGGLVQAGGSLRLSCAASGFIFSYYAMGRYRQAPGKEREMVAAITWSGSSTYYADSVKGRFTISRDNAKNTVYLQMYSLIPEDNAVYSCAASSGGFRHYFYTYNYWGQGTQVTVSS | high polyreactivity |
| QVQLVESGGGLVQAGGSLRLSCAASGFIFSYYAMGWYRQAPGKERELVAAISRNGGRTYYADSVKGRFTISRDNAKNTVYLQMNSLKPEDTAVYYCAATTYRTSSYIRYGSPKHDDYWGQGTQVTVSS | high polyreactivity |

| Sequence | polyreactivity (PSR sort gate) |
| --- | --- |
| QVQLVESGGGLVQAGGSLRLSCAASGFIFSYYAMGWYRQAPGKERELVAAITDSGGSTYYADSVKGRFTISRDNAKNTVYLQMNSLKPEDTAVYYCAATYWWAYVWAYSHVKSTNDYWGQGTQVTVSS | low polyreactivity |
| QVQLVESGGGLVQAGGSLRLSCAASGFIFSYYAMGWYRQAPGKERELVAAITSSGGSTYYADSVKGRFTISRDNAKNTVYLHLNSLKPEDTAVYYCNAYVRRTRDYDYWGQGTQVTVSS | high polyreactivity |
| QVQLVESGGGLVQAGGSLRLSCAASGFIFSYYAMGWYRQAPGKERELVAAMSSSGSRTYYADSVKGRFTISRDNAKNTVYLQMNSLKPEDTAVYYCAARGWFRGEFDYWGQGTQVTVSS | high polyreactivity |
| QVQLVESGGGLVQAGGSLRLSCAASGFIFSYYAMGWYRQAPGKERELVAVISWSGGSTYYADSVKGRFTISRDNAKNTVYLQMNSLKPEDTAVYYCNAGYTYNRVIWPYYYWGQGTQVTVSS | high polyreactivity |
| QVQLVESGGGLVQAGGSLRLSCAASGFIFSYYTMGWYRQAPGKERELVAAISRNGGSTYYADSVKGRFTISRDNAKNTVYLQMNSLKPEDTAVYYCAKRVFNYQRYDYWGQGTQVTVSS | high polyreactivity |
| QVQLVESGGGLVQAGGSLRLSCAASGFIFSYYTMGWYRQAPGKERELVAAISRRGGSTYYADSVKGRFTISRDNAKNTVYLQMNSLKPEDTAVYYCAAPRDWDAGDYWGQGTQVTVSS | high polyreactivity |
| QVQLVESGGGLVQAGGSLRLSCAASGFIFTANAMGWYRQAPGKEMELVAAISRSGGRTYYADSVKGRFTISRDNAKNTVYLQMNSLKPEDTAVYYCAAPYRSYDWYDYWGQGTQVTVSS | high polyreactivity |
| QVQLVESGGGLVQAGGSLRLSCAASGFIFTAYAMGWYRQAPGKERELVAGIRSGSATYYADSVKGRFTISRDNAKNTVYLQMNILKPEDTAVYYCNAEKYNFIYAYEYWGQGTQVTVSS | low polyreactivity |
| QVQLVESGGGLVQAGGSLRLSCAASGFIFTDNAMGWYRQAPGKERELVAAISKNGGSTYYADSVKGRFTISRDNAKNTVYLQMNSLKPEDTAVYYCNTRRKNFDKSSQVEYWGQGTQVTVSS | high polyreactivity |
| QVQLVESGGGLVQAGGSLRLSCAASGFIFTEYAMGWYRQAPGKEREFVAAISWSGGSTYYADSVKGRFTISRDNAKNTVYLQMNSLKPEDTAVYYCAKRSRGVKYDYWGQGTQVTVSS | high polyreactivity |
| QVQLVESGGGLVQAGGSLRLSCAASGFIFTFYALGWYRQAPGKEREFVASIDWGDGSTYYADSVKGRFTISRDNAKNTVYLQMNSLKPEDTAVYYCAHDYDGYVWDTEYDYWGQGTQVTVSS | low polyreactivity |
| QVQLVESGGGLVQAGGSLRLSCAASGFIFTFYAMGWYRQAPGKEREFVASIDWGDGSTYYADSVKGRFTISRDNAKNTVYLQMNSLKPEDSAVYYCAHDYDGYVWDTEYDYWGQGTQVTVSS | low polyreactivity |
| QVQLVESGGGLVQAGGSLRLSCAASGFIFTGNVMGWYRQAPGKERELVAAIRWSGGRTYYADSVKGRFTISRDNAKNTVYLQMNSLIPEDTAVYYCNALGRVQGYKPGGLDYWGQGTQVTVSS | high polyreactivity |
| QVQLVESGGGLVQAGGSLRLSCAASGFIFTGNVMGWYRQGPGKERELVAGITYTSGSTYYADSVKGRFTISRDNAKNTVYLQMNSLKPEDTAVYYCAAEVYVPDYFQHKFDVEYEYWGLGTQVTVSS | low polyreactivity |
| QVQLVESGGGLVQAGGSLRLSCAASGFIFTGYAMGWYRQAPGKERELVAAITKSGGSTYYADSVKGRFTISRDNAKNTVYLQMNSLKPEDTAVYYFNTYLWRWSKGGYLGQGTQVTVSS | high polyreactivity |
| QVQLVESGGGLVQAGGSLRLSCAASGFIFTKYVMGWYRQAPGKERELVAAISLNGGRTYYADSVKGRFTISRDNAKNTVDLQMNSLKPEDTAVYYCAVDAKAVSARTYDYGYWGQGTQVTVSS | high polyreactivity |
| QVQLVESGGGLVQAGGSLRLSCAASGFIFTQNGMGWYRQAPGKERELVAAISWSAGGTYYADSVKGRFTISRDNANNTVYLQMNSLKQEDTAVYYCNAELYFYWNVWVGYDYWGQGTQVTVSS | low polyreactivity |
| QVQLVESGGGLVQAGGSLRLSCAASGFIFTQYAMGWYRQAPGKERELVAAITRSGGRTYYADSVKGRFTISRDNAKNTVYLQMNSLIPEDTAVYYCAVDTVTRTVLVYGDRNDSWGQGTQVTVSS | high polyreactivity |
| QVQLVESGGGLVQAGGSLRLSCAASGFIFTRYAMGWYRQAPGKERELVAAISGTGGSTYYADSVKGRFTISRDNSKNTFFLQMNSLKPEDTAVYYCAAGYFVYLKYGYWGQGTKVTVSS | high polyreactivity |
| QVQLVESGGGLVQAGGSLRLSCAASGFIFTTYGMGWYRQAPGKERELVAAISYRGDSTYYADSVKGRFTISRDNAKNTVYLQMNSLKPEDTAVYYCAADVTQKPYGLSHGQDAYDYWGQGTQVTVSS | low polyreactivity |
| QVQLVESGGGLVQAGGSLRLSCAASGFIFTYNAMGWYIQAPGKEREFVASISRSGGRTYYADSVKGRFTISRDNAKNTVYLQMNSLKPEDTAVYYCAARNAYVYGMDYWGQGTQVTVSS | low polyreactivity |
